From article PMC12212125, “Constitutively active Arabidopsis cryptochrome two alleles identified using yeast selection and deep mutational scanning” (The Journal of Biological Chemistry, 2025)

B1: Arabidopsis thaliana cryptochrome 2 (CRY2, UniProt Q96524), residues 1-535 fused after the Gal4 DNA-binding domain (Gal4BD-CRY2(535)); mutagenized window 321-412, Q96524 (parent)
chain: MKMDKKTIVWFRRDLRIEDNPALAAAAHEGSVFPVFIWCPEEEGQFYPGRASRWWMKQSLAHLSQSLKALGSDLTLIKTHNTISAILDCIRVTGATKVVFNHLYDPVSLVRDHTVKEKLVERGISVQSYNGDLLYEPWEIYCEKGKPFTSFNSYWKKCLDMSIESVMLPPPWRLMPITAAAEAIWACSIEELGLENEAEKPSNALLTRAWSPGWSNADKLLNEFIEKQLIDYAKNSKKVVGNSTSLLSPYLHFGEISVRHVFQCARMKQIIWARDKNSEGEESADLFLRGIGLREYSRYICFNFPFTHEQSLLSHLRFFPWDADVDKFKAWRQGRTGYPLVDAGMRELWATGWMHNRIRVIVSSFAVKFLLLPWKWGMKYFWDTLLDADLECDILGWQYISGSIPDGHELDRLDNPALQGAKYDPEGEYIRQWLPELARLPTEWIHHPWDAPLTVLKASGVELGTNYAKPIVDIDTARELLAKAISRTREAQIMIGAAPDEIVADSFEALGANTIKEPGLCPSVSSNDQQVPSAV

Variants of: B1
Experiment: yeast two-hybrid growth selection (MaV203; Gal4BD-CRY2(1-535) library x Gal4AD-CIB1; URA3 reporter on SC -Trp/-Leu/-Ura) in the dark, deep sequencing before and after selection, Enrich2 scoring; three independent screens (one at 48 h, two …)
Settings: with CIB1 (CRYPTOCHROME-INTERACTING BASIC-HELIX-LOOP-HELIX 1), dark (no blue light), screens 1, 3 and 4, Svar > 0 = enriched under dark selection for CRY2-CIB1 two-hybrid growth (URA3 reporter), < 0 = depleted, relative to wild type (whose scores are 0). 'The Enrich2 software calculates, parent: 0, not an affinity, scale: Enrich2 score, numbering: uniprot, sequence starts at 1

Variant | enrichment
S403R | 2.21
S403N | 0.435
S403C | 0.314
S403I | 2.54
I400S | -0.343
I400V | -0.353
I400F | 1.95
I400M | 0.868
I400L | -0.846
I400T | -0.933
I400Y | 1.86
I400N | -0.48
L385I | 2.28
L385F | 2.61
L385R | -0.336
L385P | -1.22
L385V | 2.7
L385H | 2.39
G396D | 0.65
G396A | -1.05
G396V | 0.898
G396R | 2.19
G396S | -1.1
I394L | 2.29
I394S | 0.694
I394M | 1.08

Variant | enrichment
I394T | 0.588
I394N | 2.39
I394V | 0.326
I394A | 1.15
I394Y | 1.45
I394F | 2.63
A366T | 1
A366V | 2.13
A366P | -1.03
A366D | -0.566
V360L | 0.412
V360E | 0.367
V360A | 0.0306
V360G | -1.05
L372F | 0.987
L372I | -0.44
L372P | -1.5
L372R | 0.499
L372H | -1.45
I361V | -0.287
I361T | -0.646
I361M | -0.375
I361S | -0.712
I361L | 0.823
I361F | -0.00476
I361N | -1.11

Variant | enrichment
N356T | 0.0153
N356Y | 0.824
N356I | -0.473
N356H | 0.0591
N356S | 0.0584
N356D | 2.44
N356K | -0.299
D387A | -0.921
D387V | -0.792
D387N | -0.788
D387G | -1.18
D387Y | -0.867
D387E | -1.15
D387H | -0.974
L386S | -0.716
L386W | -0.68
L386V | 0.483
L386M | 0.0161
L386F | -0.324
D411E | 1.55
D406V | 2.12
D406Y | -0.496
D406G | -0.172
D406H | -0.803
D406E | -0.152
D406A | -0.00151

Variant | enrichment
D406N | -0.7
F381C | 0.0158
F381V | -0.0604
F381Y | 0.399
F381L | 1.1
F381I | -0.4
F381S | -1.2
F381T | 1.8
A388V | -0.153
A388P | -0.944
A388G | -1.33
A388S | 0.429
A388T | -0.454
A388D | -0.472
S401T | 2.02
S401P | -0.107
S401F | 2.4
S401A | -0.239
S401Y | 0.744
S401L | 2.46
I358R | -0.0561
I358K | -1.34
I358M | 0.739
I358T | -0.414
I358L | 0.903
I358V | 0.345

Variant | enrichment
G407V | 1.39
G407A | -0.714
G407D | 1.47
G407S | -0.771
G407R | -0.0452
G407C | 1.11
G407N | 2.77
E409V | 0.507
E409G | 0.152
E409T | 0.84
E409D | 0.454
E409A | -0.172
E409K | -0.366
K368T | 2.52
K368E | 2.88
K368D | 3.06
K368V | 1.84
K368R | 0.246
K368M | 2.28
K368S | 1.76
K368Q | 2.29
K368N | 2.25
L410R | 1.71
T384K | -0.721
T384S | 0.274
T384I | -0.949

Variant | enrichment
T384P | -1.14
T384A | 0.177
Y380N | -1.37
Y380H | -0.297
Y380C | -0.0376
Y380D | -0.763
Y380S | -0.827
Y380F | 1.2
R357G | 2.16
R357S | 2.1
R357K | 0.845
R357I | -0.511
I404V | -0.182
I404S | 1.61
I404N | 1.51
I404T | -0.507
I404F | 2.25
I404Y | 1.4
I404A | 1.16
L370R | 0.499
L370P | -1.4
L370H | -0.964
L370I | -0.966
